{
  "source": "patent US20070218075",
  "proteins": {"B1": {"name": "Factor XIIIa (Factor XIII, Haematologic Technologies, activated by thrombin) (protein)", "chain 1": "GVNLQEFLNVTSVHLFKERWDTNKVDHHTDKYENNKLIVRRGQSFYVQIDFSRPYDPRRDLFRVEYVIGRYPQENKGTYIPVPIVSELQSGKWGAKIVMREDRSVRLSIQSSPKCIVGKFRMYVAVWTPYGVLRTSRNPETDTYILFNPWCEDDAVYLDNEKEREEYVLNDIGVIFYGEVNDIKTRSWSYGQFEDGILDTCLYVMDRAQMDLSGRGNPIKVSRVGSAMVNAKDDEGVLVGSWDNIYAYGVPPSAWTGSVDILLEYRSSENPVRYGQCWVFAGVFNTFLRCLGIPARIVTNYFSAHDNDANLQMDIFLEEDGNVNSKLTKDSVWNYHCWNEAWMTRPDLPVGFGGWQAVDSTPQENSDGMYRCGPASVQAIKHGHVCFQFDAPFVFAEVNSDLIYITAKKDGTHVVENVDATHIGKLIVTKQIGGDGMMDITDTYKFQEGQEEERLALETALMYGAKKPLNTEGVMKSRSNVDMDFEVENAVLGKDFKLSITFRNNSHNRYTITAYLSANITFYTGVPKAEFKKETFDVTLEPLSFKKEAVLIQAGEYMGQLLEQASLHFFVTARINETRDVLAKQKSTVLTIPEIIIKVRGTQVVGSDMTVTVEFTNPLKETLRNVWVHLDGPGVTRPMKKMFREIRPNSTVQWEEVCRPWVSGHRKLIASMSSDSLRHVYGELDVQIQRRPSM", "chain 2": "EEKPCGFPHVENGRIAQYYYTFKSFYFPMSIDKKLSFFCLAGYTTESGRQEEQTTCTTEGWSPEPRCFKKCTKPDLSNGYISDVKLLYKIQENMRYGCASGYKTTGGKDEEVVQCLSDGWSSQPTCRKEHETCLAPELYNGNYSTTQKTFKVKDKVQYECATGYYTAGGKKTEEVECLTYGWSLTPKCTKLKCSSLRLIENGYFHPVKQTYEEGDVVQFFCHENYYLSGSDLIQCYNFGWYPESPVCEGRRNRCPPPPLPINSKIQTHSTTYRHGEIVHIECELNFEIHGSAEIRCEDGKWTEPPKCIEGQEKVACEEPPFIENGAANLHSKIYYNGDKVTYACKSGYLLHGSNEITCNRGKWTLPPECVENNENCKHPPVVMNGAVADGILASYATGSSVEYRCNEYYLLRGSKISRCEQGKWSSPPVCLEPCTVNVDYMNRNNIEMKWKYEGKVLHGDLIDFVCKQGYDLSPLTPLSELSVQCNRGEVKYPLCTRKESKGMCTSPPLIKHGVIISSTVDTYENGSSVEYRCFDHHFLEGSREAYCLDGMWTTPPLCLEPCTLSFTEMEKNNLLLKWDFDNRPHILHGEYIEFICRGDTYPAELYITGSILRMQCDRGQLKYPRCIPRQSTLSYQEPLRT"}},
  "key": {"[1]": {"biological_target": "T1, 1Q FnbA mutant (recombinant Gln103Ala FnbA mutant, residues Ala1-Pro839)", "T1 chain": "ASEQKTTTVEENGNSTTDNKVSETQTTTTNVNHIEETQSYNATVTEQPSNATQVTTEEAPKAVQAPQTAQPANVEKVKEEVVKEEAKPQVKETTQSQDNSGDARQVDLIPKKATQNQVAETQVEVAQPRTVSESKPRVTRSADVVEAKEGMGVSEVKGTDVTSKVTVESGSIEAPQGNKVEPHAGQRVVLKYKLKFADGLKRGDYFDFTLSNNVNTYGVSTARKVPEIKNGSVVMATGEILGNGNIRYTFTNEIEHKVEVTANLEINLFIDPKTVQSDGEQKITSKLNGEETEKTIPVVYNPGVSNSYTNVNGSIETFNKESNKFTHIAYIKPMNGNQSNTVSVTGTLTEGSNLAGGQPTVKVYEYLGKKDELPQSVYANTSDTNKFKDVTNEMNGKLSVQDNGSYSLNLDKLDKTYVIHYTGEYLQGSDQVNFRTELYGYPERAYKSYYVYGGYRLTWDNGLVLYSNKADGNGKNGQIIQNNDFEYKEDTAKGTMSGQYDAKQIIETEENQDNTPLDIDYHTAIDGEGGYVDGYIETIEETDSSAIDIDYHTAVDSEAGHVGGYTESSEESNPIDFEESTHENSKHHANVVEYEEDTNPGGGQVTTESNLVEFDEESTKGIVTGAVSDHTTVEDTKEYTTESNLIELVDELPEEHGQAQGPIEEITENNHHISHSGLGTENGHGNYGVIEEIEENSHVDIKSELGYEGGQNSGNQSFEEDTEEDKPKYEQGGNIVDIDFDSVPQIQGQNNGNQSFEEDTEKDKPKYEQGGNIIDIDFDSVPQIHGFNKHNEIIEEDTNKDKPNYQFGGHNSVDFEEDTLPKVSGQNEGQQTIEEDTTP"}, "[2]": {"biological_target": "T2, 4Q4K FnbA mutant (recombinant Gln103Ala, Gln105Ala, Gln783Ala, Gln830Ala, Lys157Ala, Lys503Ala, Lys620Ala, and Lys762Ala mutant, residues Ala1-Pro839)", "T2 chain": "T1 chain with Q105A, K157A, K503A, K620A, K762A, Q783A, Q830A"}, "[3]": {"biological_target": "T3, recombinant fibronectin-binding protein A (rFnbA) comprising residues Ala1 through Pro839 from S. aureus strain ATCC49525, wild type", "T3 chain": "T1 chain with A103Q"}},
  "note": "Residue numbers refer to the chain shown, from its start.",
  "data": [
    {"protein": "B1", "values": [
      {"measurement": "Factor XIIIa-catalyzed incorporation of dansylcadaverine (fluorescence of the FnbA band on SDS-PAGE)", "setting": "[1]", "value": "incorporation of dansylcadaverine into the 1Q FnbA mutant was drastically reduced"},
      {"measurement": "Factor XIIIa-catalyzed incorporation of dansylcadaverine (fluorescence of the FnbA band on SDS-PAGE)", "setting": "[2]", "value": "Further reduction in fluorescence intensity was observed with the 4Q4K rFnbA mutant"},
      {"measurement": "Factor XIIIa-catalyzed incorporation of dansylcadaverine (fluorescence of the FnbA band on SDS-PAGE)", "setting": "[3]", "value": "the band corresponding to the wild-type FnbA undergoes a continual increase of fluorescence reflecting the enzymatic attachment of increasing molecules of the probe"}
    ]}
  ]
}
